Data: patent publication US20130184211A1 (NEW YORK UNIVERSITY, published 2013)

T1: 1:1 binary complex of the ectodomains of FGFR1c and Klotho (human; murine, UniProt O35082 35-982)
T1 construct: range 35-982; also called FGFR1c-Klotho complex; binary FGFR1c-Klotho complex; not shown: C-terminal FLAG tag
T1 sequence 1: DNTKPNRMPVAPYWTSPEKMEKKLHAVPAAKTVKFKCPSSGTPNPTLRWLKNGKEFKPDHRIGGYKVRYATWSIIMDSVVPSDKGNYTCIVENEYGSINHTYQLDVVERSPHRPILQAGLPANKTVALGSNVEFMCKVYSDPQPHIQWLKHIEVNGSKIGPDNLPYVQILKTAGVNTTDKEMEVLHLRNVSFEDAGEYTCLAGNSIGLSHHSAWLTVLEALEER
T1 sequence 2: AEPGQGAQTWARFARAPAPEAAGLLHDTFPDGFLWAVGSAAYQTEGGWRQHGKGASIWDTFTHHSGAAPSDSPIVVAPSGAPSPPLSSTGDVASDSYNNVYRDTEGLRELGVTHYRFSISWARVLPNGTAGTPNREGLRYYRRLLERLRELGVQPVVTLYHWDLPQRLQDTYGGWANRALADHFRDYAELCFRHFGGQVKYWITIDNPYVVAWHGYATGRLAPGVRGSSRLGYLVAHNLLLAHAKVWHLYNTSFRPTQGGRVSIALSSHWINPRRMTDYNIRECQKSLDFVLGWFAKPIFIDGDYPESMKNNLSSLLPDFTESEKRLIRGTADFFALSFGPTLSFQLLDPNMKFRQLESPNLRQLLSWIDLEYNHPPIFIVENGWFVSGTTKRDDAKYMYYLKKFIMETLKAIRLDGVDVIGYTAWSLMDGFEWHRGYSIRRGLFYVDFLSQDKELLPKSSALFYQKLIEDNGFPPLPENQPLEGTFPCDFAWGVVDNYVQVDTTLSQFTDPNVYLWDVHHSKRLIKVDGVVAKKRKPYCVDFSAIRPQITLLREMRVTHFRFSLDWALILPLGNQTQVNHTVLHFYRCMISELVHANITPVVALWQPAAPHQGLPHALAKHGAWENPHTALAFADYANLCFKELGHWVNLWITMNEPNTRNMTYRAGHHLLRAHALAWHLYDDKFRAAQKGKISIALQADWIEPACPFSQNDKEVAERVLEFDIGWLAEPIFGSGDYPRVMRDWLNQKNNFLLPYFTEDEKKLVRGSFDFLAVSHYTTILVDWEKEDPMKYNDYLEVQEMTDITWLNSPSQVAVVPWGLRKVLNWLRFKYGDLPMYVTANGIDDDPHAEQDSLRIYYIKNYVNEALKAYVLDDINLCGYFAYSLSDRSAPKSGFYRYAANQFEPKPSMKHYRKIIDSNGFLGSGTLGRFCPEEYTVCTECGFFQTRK


What was measured:
[1] = target: FGFR-Klotho complex of opossum kidney OKP cells (opossum); assay: cell-based or functional assay
[2] = target: T2, complex of V5-tagged FGFR1c and FLAG-tagged membrane-spanning murine Klotho isolated from transfected … (murine, UniProt O35082 35-1014); assay: co-immunoprecipitation competition; competitor FGF23^28-251 (1 nM)
T2 construct: Isolated from cell lysate on anti-V5 agarose beads; also called FGFR1c-Klotho complex (co-immunoprecipitated); binary FGFR-Klotho complex; not shown: FGFR1c, V5-tagged, expressed from a vector in HEK293-Klotho cells
Excerpt: (§1) Co-immunoprecipitation may also be used to determine that an agent specifically binds the binary FGFR-Klotho complex. One aspect of the present invention utilizes co-immunoprecipitation studies. Subconfluent cultures of a HEK293 cell line ectopically expressing the FLAG-tagged membrane-spanning form of murine Klotho were transfected with expression vectors for V5-tagged FGFR1c, FGFR3c, or FGFR4. Two days later, the cells were lysed, and FGFR-Klotho complexes were isolated from cell lysate using anti-V5 agarose beads. The beads were then incubated with either FGF23¹⁸⁰⁻²⁵¹ or FGF23²⁸⁻²⁵¹ alone, or with mixtures of FGF23²⁸⁻²⁵¹ with either increasing FGF23¹⁸⁰⁻²⁵¹ or increasing FGF23¹⁸⁰⁻²⁰⁵. Bead-bound proteins were resolved on SDS-polyacrylamide gels, transferred to nitrocellulose membranes, and labeled using antibodies to Klotho, FGF23, and V5 epitope tag.

[3] = target: T3, complex of V5-tagged FGFR3c and FLAG-tagged membrane-spanning murine Klotho isolated from transfected … (murine, UniProt O35082 35-1014); assay: co-immunoprecipitation competition; competitor FGF23^28-251
T3 construct: Isolated from cell lysate on anti-V5 agarose beads; also called FGFR3c-Klotho complex; binary FGFR-Klotho complex; not shown: FGFR3c, V5-tagged, expressed from a vector in HEK293-Klotho cells
Excerpt: as §1

[4] = target: T1, 1:1 binary complex of the ectodomains …; assay: SPR competition dose-response: FGF23^180-205 mixed with a fixed concentration of FGFR1c-Klotho, immobilized FGF23^28-251 as competitor; averaged data of two to three experiments
Excerpt: To analyze FGF23 binding to the binary FGFR1c-Klotho complex, FGF23²⁸⁻²⁵¹ was coupled to a chip, and increasing concentrations of 1:1 complex of the ectodomains of FGFR1c and Klotho in HBS-EP buffer were passed over the chip. To measure binding of the C-terminal tail of FGF23 to the binary FGFR1c-Klotho complex, FGF23¹⁸⁰⁻²⁵¹ was immobilized on a chip, and increasing concentrations of 1:1 complex of the ectodomains of FGFR1c and Klotho in HBS-EP buffer were passed over the chip. To examine whether the C-terminal tail of FGF23 can compete with full-length FGF23 for binding to the binary FGFR1c-Klotho complex, FGF23²⁸⁻²⁵¹ was immobilized on a chip. Increasing concentrations of FGF23¹⁸⁰⁻²⁵¹ were mixed with a fixed concentration of 1:1 complex of the ectodomains of FGFR1c and Klotho in HBS-EP buffer, and the mixtures were passed over the chip. As a control, competition of FGF23 in solution with immobilized FGF23 for binding to the binary FGFR1c-Klotho complex was studied. Increasing concentrations of FGF23²⁸⁻²⁵¹ were mixed with a fixed concentration of 1:1 complex of the ectodomains of FGFR1c and Klotho in HBS-EP buffer, and the mixtures were passed over the FGF23 chip. […] As a control, competition of FGF23 C-terminal tail peptide in solution with immobilized FGF23 C-terminal tail peptide for binding to the binary FGFR1c-Klotho complex was analyzed. […]

T3 sequence (O35082 35-1014, one chain of several): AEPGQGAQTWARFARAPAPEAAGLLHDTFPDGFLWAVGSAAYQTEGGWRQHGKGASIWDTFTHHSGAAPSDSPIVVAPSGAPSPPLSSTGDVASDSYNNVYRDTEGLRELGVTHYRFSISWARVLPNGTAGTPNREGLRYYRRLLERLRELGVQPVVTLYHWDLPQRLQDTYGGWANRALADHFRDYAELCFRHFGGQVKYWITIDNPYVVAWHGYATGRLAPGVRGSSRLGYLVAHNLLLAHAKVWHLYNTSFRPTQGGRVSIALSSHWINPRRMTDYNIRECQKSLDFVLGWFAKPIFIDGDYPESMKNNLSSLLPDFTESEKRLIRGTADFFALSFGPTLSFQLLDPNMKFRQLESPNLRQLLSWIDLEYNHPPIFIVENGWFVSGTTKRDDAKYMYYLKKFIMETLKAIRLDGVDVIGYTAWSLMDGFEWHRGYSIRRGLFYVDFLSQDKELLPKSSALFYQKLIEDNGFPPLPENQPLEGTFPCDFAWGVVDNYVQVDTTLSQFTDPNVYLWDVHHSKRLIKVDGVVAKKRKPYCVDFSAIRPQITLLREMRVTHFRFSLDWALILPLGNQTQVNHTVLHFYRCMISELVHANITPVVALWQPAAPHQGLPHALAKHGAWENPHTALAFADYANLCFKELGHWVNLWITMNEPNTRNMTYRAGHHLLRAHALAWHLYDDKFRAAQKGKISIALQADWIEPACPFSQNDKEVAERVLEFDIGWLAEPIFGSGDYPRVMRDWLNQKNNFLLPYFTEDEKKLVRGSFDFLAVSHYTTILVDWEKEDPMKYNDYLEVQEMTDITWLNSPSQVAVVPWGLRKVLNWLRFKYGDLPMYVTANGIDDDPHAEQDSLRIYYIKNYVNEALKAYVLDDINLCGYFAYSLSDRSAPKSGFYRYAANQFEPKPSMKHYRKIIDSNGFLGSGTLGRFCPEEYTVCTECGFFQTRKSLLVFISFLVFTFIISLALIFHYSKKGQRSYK

antagonism of the inhibition of sodium-coupled phosphate uptake by FGF23^28-251 in OKP cells, IC50 [1] [nM] | molar excess over FGF23^28-251 that completely blocked its binding [2] [fold molar excess] | fold reduced potency compared to the FGF23^180-251 peptide [3] [fold] | IC50 (read off the curve) [4] [nM] | Binder
~21 | 76 | – | – | N-terminally hexahistidine-tagged 72-amino acid C-terminal tail of human FGF23 (S180 to I251), FGF23^180-251 (Expressed in E. coli; also called FGF23 C-terminal tail peptide; C-terminal tail of FGF23; not shown: N-terminal hexahistidine tag (six His)) peptide: SAEDDSERDPLNVLKPRARMTPAPASCSQELPSAEDNSPMASDPLGVVRGGRVNTHAGGTGPEGCRPFAKFI
– | – | > 100 | ~100 | SAEDDSERDPLNVLKPRARMTPAPAS (Made by solid phase synthesis (GenScript)) [FGF23 C-terminal region peptide (S180 to S205), FGF23^180-205]
